Values quoted from earlier work, collected in article PMC8526499.
Like-named read-outs stand apart in the source and are kept apart here.

What was measured:
CD47 (Homo sapiens) [1] = target: CD47 (Homo sapiens) (UniProt Q08722)
CD47 (Mus musculus) = CD47 (Mus musculus) (UniProt Q61735)
CD47 (Homo sapiens) [2] = target: CD47 (Homo sapiens) (UniProt Q08722); remark: listed apart in the source
CD47 (Homo sapiens) [3] = target: CD47 (Homo sapiens) (UniProt Q08722); remark: listed apart in the source

Sequence of UniProt Q08722 (Q08722 19-323): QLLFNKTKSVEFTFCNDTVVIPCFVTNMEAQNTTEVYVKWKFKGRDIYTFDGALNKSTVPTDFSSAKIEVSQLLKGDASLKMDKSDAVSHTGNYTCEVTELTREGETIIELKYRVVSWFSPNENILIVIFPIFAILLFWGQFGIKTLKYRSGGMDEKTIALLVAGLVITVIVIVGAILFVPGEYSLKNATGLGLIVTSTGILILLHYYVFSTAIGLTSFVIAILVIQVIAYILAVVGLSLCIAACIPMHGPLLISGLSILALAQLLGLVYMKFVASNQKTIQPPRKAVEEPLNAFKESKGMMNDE
Sequence of UniProt Q61735 (Q61735 19-303): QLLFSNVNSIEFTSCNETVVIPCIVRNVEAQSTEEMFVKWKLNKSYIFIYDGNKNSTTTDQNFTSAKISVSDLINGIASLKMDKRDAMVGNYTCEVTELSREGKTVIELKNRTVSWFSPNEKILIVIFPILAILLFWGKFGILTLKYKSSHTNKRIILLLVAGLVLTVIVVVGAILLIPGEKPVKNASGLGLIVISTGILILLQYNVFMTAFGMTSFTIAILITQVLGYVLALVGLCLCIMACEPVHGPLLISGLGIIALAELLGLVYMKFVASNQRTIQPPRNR

Question: Which Kd (CD47 (Homo sapiens) [1]) does the source give for SIRPα (C57BL/6) (from UniProt P97797) here?
Answer: 5 µM

Question: What about the Kd (CD47 (Mus musculus)) of the same substance?
Answer: 5 µM

Question: With SIRPα (NOD) (from UniProt P97797) as the substance, how does the Kd (CD47 (Homo sapiens) [2]) read?
Answer: 0.08 µM

Question: With SIRPα (from UniProt P78324) as the substance, how does the Kd (CD47 (Homo sapiens) [3]) read?
Answer: 0.45 µM
